Consider eight molecules from US20250326865A1, “C-MET PROTEIN-BINDING PEPTIDE COMPLEX” (PeptiDream Inc., priority 2021, published 2025).

Read-outs that look alike come from different tables or passages of the source. Starred links: 1 amine or outer side, 2 acyl side, 3 side chain; linkers in the order of their positions; H or OH if unused. Positions of bridges follow the written chain, without caps; N, C: chain ends. Non-standard residues stand in square brackets, D forms with d. Residues, ends and D or L forms follow the SMILES beside them. Primed or numbered codes have the meaning given here. Chains are numbered I, II in the order given. No end group written: not given here. CO(CH2)2(OCH2CH2)17CO = O=C(CCOCCOCCOCCOCCOCCOCCOCCOCCOCCOCCOCCOCCOCCOCCOCCOCCOCCC(=O)[*:2])[*:1]; OCOPEG13OCO = 3,6,9,12,15,18,21,24,27,30,33-undecaoxapentatriacontane-1,35-diylbis(bicarbonate); CO(CH2CH2O)9CH2CH2CO = O=C(CCOCCOCCOCCOCCOCCOCCOCCOCCOCCC(=O)[*:2])[*:1]; X1 = O=C(OCCOCCOCCOCCOCCOCCOCCOCCOCCOCCOCCOCCOC(=O)[*:2])[*:1]; NMeF = CN[C@@H](Cc1ccccc1)C(=O)O; Ahp(2) = CCCCC[C@H](N)C(=O)O; NMeC = CN[C@@H](CS)C(=O)O; Ahp′ = not defined here

In experiment [1] the target is T1, human c-Met protein (human, UniProt P08581 25-1390). Description: cell-based or functional assay.
For experiment [2], the target named is T2, c-Met (Homo sapiens, UniProt P08581).
T2 construct: endogenous in cells; host or cells: A431 (human)
Description: Phospho-c-Met AlphaLISA assay (c-Met agonist activity) in A431 cells. It is filed as cell-based. The settings on record: 15 minutes of stimulation; for EC50: concentration of peptide showing 50% activity of the signal induced by HGF, A431 cells, read-out: C-Met Agonist Activity (C50; nM); for C-Met Agonist Activity (2 or 1): c-Met phosphorylation (Tyr1234/1235) in A431 cells, maximum signal induced by HGF = 100%. How it is done: To evaluate the activation potency (c-Met agonist activity) of c-Met of the peptide complex of the present invention, the phosphorylation of c-Met was verified. Human A431 cells were cultured in DMEM high glucose, GlutaMAX (registered trademark) Supplement, pyruvate (Thermo Fisher Scientific), containing 10% FBS (Gibco). After cells were detached using Accutase (Innovative cell technologies), they were seeded into a 96-well plate at 10000 cells per well and cultured overnight. The next day, for starvation, the culture medium was changed to DMEM high glucose, GlutaMAX (registered trademark) Supplement, pyruvate (Thermo Fisher Scientific), containing 0.1% BSA (Sigma-Aldrich), and the cells were cultured overnight. Then, the peptide complex synthesized in Example 3 or Recombinant Human HGF Protein (R&D systems) as a control was added, and after 15 minutes of stimulation, cells were lysed in a Lysis Buffer provided in the AlphaLISA (registered trademark) SureFire (registered trademark) Ultra™ Phospho-c-Met (Tyr1234/1235) kit (PerkinElmer). The assay was performed according to the kit protocol, and a SpectraMax (registered trademark) Paradigm (registered trademark) multimode microplate reader (Molecular Devices, LLC.) was used for signal detection. […] In the same manner, the C50 value was calculated by GraphPad Prism as the concentration of peptide showing 50% activity of the signal induced by HGF. […] Further, for a complex (GFs_c-Met-00014336-PEG13 dimer; complex no. 49 in Table 4) of a peptide (SEQ ID NO: 34) and a linker (SEQ ID NO: 37), a graph of c-Met agonist activity is shown in FIG. 1.

Experiment [3] deals with T1, human c-Met protein. As to the kind of experiment: cell-based or functional assay. This is another data set of the same source.
Experiment [4] deals with T1, human c-Met protein. As to the kind of experiment: cell-based or functional assay. The source holds these as a separate data set.

T1 sequence (P08581 25-1390): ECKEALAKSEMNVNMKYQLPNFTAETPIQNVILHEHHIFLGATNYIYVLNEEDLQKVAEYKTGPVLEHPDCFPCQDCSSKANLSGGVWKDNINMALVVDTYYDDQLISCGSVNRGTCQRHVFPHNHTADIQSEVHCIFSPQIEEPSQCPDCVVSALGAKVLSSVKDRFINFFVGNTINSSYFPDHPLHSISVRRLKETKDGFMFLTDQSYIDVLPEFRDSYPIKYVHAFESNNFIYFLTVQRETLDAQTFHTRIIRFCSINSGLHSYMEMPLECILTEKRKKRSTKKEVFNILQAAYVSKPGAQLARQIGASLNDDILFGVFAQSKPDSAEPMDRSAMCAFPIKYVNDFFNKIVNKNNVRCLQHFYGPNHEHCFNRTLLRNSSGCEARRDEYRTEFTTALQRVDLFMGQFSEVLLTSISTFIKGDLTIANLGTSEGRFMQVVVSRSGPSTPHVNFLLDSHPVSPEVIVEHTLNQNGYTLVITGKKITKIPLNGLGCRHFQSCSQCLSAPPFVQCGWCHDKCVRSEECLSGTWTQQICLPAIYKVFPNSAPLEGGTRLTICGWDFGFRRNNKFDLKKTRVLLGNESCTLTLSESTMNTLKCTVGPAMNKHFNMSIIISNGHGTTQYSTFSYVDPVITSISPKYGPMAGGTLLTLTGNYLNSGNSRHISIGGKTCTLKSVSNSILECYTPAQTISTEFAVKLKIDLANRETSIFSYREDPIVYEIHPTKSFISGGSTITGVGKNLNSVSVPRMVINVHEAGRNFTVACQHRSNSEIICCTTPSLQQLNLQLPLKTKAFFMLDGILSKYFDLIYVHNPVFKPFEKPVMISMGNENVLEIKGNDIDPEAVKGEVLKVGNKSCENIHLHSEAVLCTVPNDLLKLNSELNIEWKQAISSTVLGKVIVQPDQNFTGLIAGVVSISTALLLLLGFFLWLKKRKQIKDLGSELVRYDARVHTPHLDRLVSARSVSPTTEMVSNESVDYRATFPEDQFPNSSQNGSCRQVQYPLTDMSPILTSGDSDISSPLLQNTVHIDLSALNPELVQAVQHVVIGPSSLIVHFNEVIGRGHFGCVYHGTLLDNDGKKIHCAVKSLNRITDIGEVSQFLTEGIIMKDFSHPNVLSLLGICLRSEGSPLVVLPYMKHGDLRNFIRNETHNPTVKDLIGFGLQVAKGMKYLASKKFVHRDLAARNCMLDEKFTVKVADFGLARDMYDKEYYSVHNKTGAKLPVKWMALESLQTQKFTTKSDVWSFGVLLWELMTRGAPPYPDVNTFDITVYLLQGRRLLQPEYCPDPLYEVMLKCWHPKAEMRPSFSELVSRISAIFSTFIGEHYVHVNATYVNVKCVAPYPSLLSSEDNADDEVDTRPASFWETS
T2 sequence (P08581 25-1390): as above

In experiment [1], “Recombinant Human HGF Protein (R&D systems) (from UniProt P14210 32-728) (ligand)” had an EC50, HUVEC cell proliferation (CellTiter-Glo) of 0.37 nM and an EC50, phospho-c-Met AlphaLISA, A431 cells of 0.66 nM. For `CCCCC[C@@H]1NC(=O)[C@H](CC(=O)O)NC(=O)[C@@H]2CCCN2C(=O)[C@H](CC(=O)O)NC(=O)[C@H](Cc2ccccc2)N(C)C(=O)[C@H](CO)NC(=O)[C@H](C(C)C)NC(=O)[C@H](C)NC(=O)[C@H](CCC(=O)O)NC(=O)[C@H](Cc2ccccc2)N(C)C(=O)CSC[C@@H](C(=O)NCC(=O)N[C@@H](CCCCNC(=O)CCOCCOCCOCCOCCOCCOCCOCCOCCOCCOCCOCCOCCOCCOCCOCCOCCOCCC(=O)NCCCC[C@H](NC(=O)CNC(=O)[C@@H]2CSCC(=O)N(C)[C@@H](Cc3ccccc3)C(=O)N[C@@H](CCC(=O)O)C(=O)N[C@@H](C)C(=O)N[C@@H](C(C)C)C(=O)N[C@@H](CO)C(=O)N(C)[C@@H](Cc3ccccc3)C(=O)N[C@@H](CC(=O)O)C(=O)N3CCC[C@H]3C(=O)N[C@@H](CC(=O)O)C(=O)N[C@@H](CCCCC)C(=O)N3CCC[C@H]3C(=O)N[C@@H](CCCNC(=N)N)C(=O)N[C@@H](Cc3c[nH]c4ccccc34)C(=O)N[C@@H](C)C(=O)N2C)C(N)=O)C(N)=O)N(C)C(=O)[C@H](C)NC(=O)[C@H](Cc2c[nH]c3ccccc23)NC(=O)[C@H](CCCNC(=N)N)NC(=O)[C@@H]2CCCN2C1=O` [Peptide 27] (I: {CH2CO}-[NMeF]EAVS[NMeF]DPD[Ahp(2)]PRWA[NMeC]GK-NH2 / II: {CH2CO}-[NMeF]EAVS[NMeF]DPD[Ahp(2)]PRWA[NMeC]GK-NH2; linker I:17-II:17 via CO(CH2)2(OCH2CH2)17CO (inferred); thioether I:N-I:15, II:N-II:15 (inferred); C-terminus assumed), the EC50 in experiment [2] turned out to be 2.37 nM.

As to “2 ({CH2CO}-[MeA]VYVS[NMeF]DDD[Ahp′]PRWS[NMeC]; thioether N-15 (inferred); not fully specified; reading uncertain; also: conjugated moiety via linker) [Peptide 2]”, the “C-Met Agonist Activity (2 or 1)” value in experiment [2] is 1 (those showing less than 50% activation as 1).

With `CCCCC[C@@H]1NC(=O)[C@H](CC(=O)O)NC(=O)[C@H](CCC(=O)O)NC(=O)[C@H](CC(=O)O)NC(=O)[C@H](Cc2ccccc2)N(C)C(=O)[C@H](CO)NC(=O)[C@H](C(C)C)NC(=O)[C@H](C)NC(=O)[C@H]([C@@H](C)O)NC(=O)[C@H](Cc2ccccc2)N(C)C(=O)CSC[C@@H](C(=O)NCC(=O)N[C@@H](CCCCNC(=O)OCCOCCOCCOCCOCCOCCOCCOCCOCCOCCOCCOCCOC(=O)NCCCC[C@H](NC(=O)CNC(=O)[C@@H]2CSCC(=O)N(C)[C@@H](Cc3ccccc3)C(=O)N[C@@H]([C@@H](C)O)C(=O)N[C@@H](C)C(=O)N[C@@H](C(C)C)C(=O)N[C@@H](CO)C(=O)N(C)[C@@H](Cc3ccccc3)C(=O)N[C@@H](CC(=O)O)C(=O)N[C@@H](CCC(=O)O)C(=O)N[C@@H](CC(=O)O)C(=O)N[C@@H](CCCCC)C(=O)N3CCC[C@H]3C(=O)N[C@@H](CCCNC(=N)N)C(=O)N[C@@H](Cc3c[nH]c4ccccc34)C(=O)N[C@@H](CO)C(=O)N2C)C(N)=O)C(N)=O)N(C)C(=O)[C@H](CO)NC(=O)[C@H](Cc2c[nH]c3ccccc23)NC(=O)[C@H](CCCNC(=N)N)NC(=O)[C@@H]2CCCN2C1=O` [Peptide 49] (I: {CH2CO}-[NMeF]TAVS[NMeF]DED[Ahp(2)]PRWS[NMeC]GK-NH2 / II: {CH2CO}-[NMeF]TAVS[NMeF]DED[Ahp(2)]PRWS[NMeC]GK-NH2; linker I:17-II:17 via X1 (inferred); thioether I:N-I:15, II:N-II:15 (inferred); C-terminus assumed), the EC50 in experiment [2] came out at 0.67 nM. With “5 ([NMeF]WYVS[NMeF]DDD[Ahp′]PRWS[NMeC]; not fully specified; reading uncertain) [Peptide 5]”, the “C-Met Agonist Activity (2 or 1)” value in experiment [2] was 2 (those showing more than 50% activation were described as 2). With `CCCCC[C@@H]1NC(=O)[C@H](CC(=O)O)NC(=O)[C@@H]2CCCN2C(=O)[C@H](CC(=O)O)NC(=O)[C@H](Cc2ccccc2)N(C)C(=O)[C@H](CO)NC(=O)[C@H](C(C)C)NC(=O)[C@H](C)NC(=O)[C@H]([C@@H](C)O)NC(=O)[C@H](Cc2ccccc2)N(C)C(=O)CSC[C@@H](C(=O)NCC(=O)N[C@@H](CCCCNC(=O)CCOCCOCCOCCOCCOCCOCCOCCOCCOCCC(=O)NCCCC[C@H](NC(=O)CNC(=O)[C@@H]2CSCC(=O)N(C)[C@@H](Cc3ccccc3)C(=O)N[C@@H]([C@@H](C)O)C(=O)N[C@@H](C)C(=O)N[C@@H](C(C)C)C(=O)N[C@@H](CO)C(=O)N(C)[C@@H](Cc3ccccc3)C(=O)N[C@@H](CC(=O)O)C(=O)N3CCC[C@H]3C(=O)N[C@@H](CC(=O)O)C(=O)N[C@@H](CCCCC)C(=O)N3CCC[C@H]3C(=O)N[C@@H](CCCNC(=N)N)C(=O)N[C@@H](Cc3c[nH]c4ccccc34)C(=O)N[C@@H](C)C(=O)N2C)C(N)=O)C(N)=O)N(C)C(=O)[C@H](C)NC(=O)[C@H](Cc2c[nH]c3ccccc23)NC(=O)[C@H](CCCNC(=N)N)NC(=O)[C@@H]2CCCN2C1=O` [Peptide 46] (I: {CH2CO}-[NMeF]TAVS[NMeF]DPD[Ahp(2)]PRWA[NMeC]GK-NH2 / II: {CH2CO}-[NMeF]TAVS[NMeF]DPD[Ahp(2)]PRWA[NMeC]GK-NH2; linker I:17-II:17 via CO(CH2CH2O)9CH2CH2CO (inferred); thioether I:N-I:15, II:N-II:15 (inferred)), the EC50 in experiment [2] stood at 0.67 nM. As for “12 ({CH2CO}-[NMeF]VYVS[NMeF]DDD[Ahp′]PRWD[NMeC]; thioether N-15 (inferred); not fully specified; reading uncertain; also: conjugated moiety via linker) [Peptide 12]”, the “C-Met Agonist Activity (2 or 1)” value in experiment [2] is 2 (those showing more than 50% activation were described as 2).

B1: GFs_c-Met-00014336-PEG13 dimer (peptide SEQ ID NO: 34, GFs_c-Met-00014336p; linker SEQ ID NO: 37) (peptide)
peptide: {CH2CO}-[NMeF]TAVS[NMeF]DED[Ahp(2)]PRWS[NMeC]
chain: GK[OCOPEG13OCO]KG
modifications: thioether I:N-I:15 (inferred); also: homodimer: two cyclic peptides joined by linker G-K-OCOPEG13OCO-K-G, peptide C-terminus on linker
Consider B1, for which the “C-Met Agonist Activity (C50; nM): phospho-c-Met AlphaLISA, A431 cells” value in experiment [3] came to 0.67 nM. In addition, in experiment [4], the “EC50, HUVEC cell proliferation (CellTiter-Glo)” value was found to be 0.55 nM and the “EC50, phospho-c-Met AlphaLISA, A431 cells (FIG. 1)” value was determined as 0.72 nM.
